Test results as given in paper PMC6860931, “Role of the malic enzyme in metabolism of the halotolerant methanotroph Methylotuvimicrobium alcaliphilum 20Z” (PLoS ONE, 2019).

What was measured:
purified protein [1] = substrate: NC(=O)c1ccc[n+]([C@@H]2O[C@H](COP(=O)(O)OP(=O)(O)OC[C@H]3O[C@@H](n4cnc5c(N)ncnc54)[C@H](O)[C@@H]3O)[C@@H](O)[C@H]2O)c1; experiment: purified protein; format: biochemical, Methylotuvimicrobium alcaliphilum; conditions: malate as co-substrate, assay mixture 10 mM malate, 2.5 mM MgCl2, 50 mM Tris-HCl, pH 9.0, 30°C, varied: cofactor
purified protein [2] = substrate: O=C(O)C[C@H](O)C(=O)O; experiment: purified protein; conditions: NAD+ as co-substrate, assay mixture 0.3 mM NAD+, 2.5 mM MgCl2, 50 mM Tris-HCl, pH 9.0, 30°C

B1: Mae (malic enzyme from Mtm. alcaliphilum 20Z) (Methylotuvimicrobium alcaliphilum 20Z) (protein)
chain: MTAMSKTPLYIPYAGPALLEMPLLNKGCAFSKEERQTFNLTGLLPPRYETIEEQVQRAYLQYSSFRNAINKHIYLRSIQDNNETLFYRLLQDHLPEMLPIIYTPTVGDACEQFSDIYRSSRGLFISYVDRQQIDDILRNTTKRNVKIIVVTDGERVLGLGDQGIGGMGISIGKLSLYTACGGISPAYTLPVVLDVGTNNEKLLQDPMYMGERHRRIPQAEYDAFIDFFLQAVKRRWPDVIVQFEDFAQPNAMPILQRYRDQLCCFNDDIQGTAAVTVGTLLAACRVKNRKLSEQRVVFVGAGSAGCGIAEQVIAQMRTEGLSDREARHRVYMVDRFGLLTESMTGLRDFQQKLVQVSNRLEDWSIESDYPSLLEVIQYAKPTVLIGVSGQHGIFTETVIRTMTQGCDWPIIFPLSNPPRQVEATPEQIIEWTEGRVLLAAGSPFPPVEYGGKRYDVTQCNNSYIFPGIGLGVIAVQARRISDEMLIAASETLAAASPLANTGQGELLPPLTELPELSKRIAFAVGKVALKQNLALEISDEQLLKSIEENFWQPVYRHYKRVCF
notes: full-length, 1689 bp gene, pET22b(+) NdeI/XhoI, His6-tagged, E. coli BL21 (DE3), Ni-NTA
Q: Which results are given for B1?
A: Km (purified protein [1]): 57 ± 5 µM; Km (purified protein [2]): 5500 ± 800 µM
